Like-named read-outs stand apart in the source and are kept apart here. Blank lines part the entries; values can stand above or below the molecule they belong to. Starred links: 1 amine or outer side, 2 acyl side, 3 side chain; linkers in the order of their positions; H or OH if unused. Non-standard residues stand in square brackets, D forms with d. Groups on a side chain read outwards from the residue. *: point of attachment. C18 diacid = O=C(O)CCCCCCCCCCCCCCCCC(=O)*; γGlu = O=C(O)[C@H](CCC(=O)[*:2])N[*:1]; AEEA = NCCOCCOCC(=O)O; Aib = CC(C)(N)C(=O)O
How the values were obtained:
[1] = measured in humans (Meier et al., Diabetes, 2004); cited from earlier work
[2] = endogenous hormone; cited from earlier work
[3] = molecular target: T1, human amylin receptor (hAmyR3) (Homo sapiens, UniProt O60896+P30988); test: Human amylin receptor in vitro potency assay (CRE-luciferase reporter, BHK cells); type: cell-based; conditions: Tables 4a-4c;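 note: BHK cells expressing human calcitonin receptor plus RAMP3 (amylin-3 receptor) with a CRE-luciferase reporter, agonist activity read as luminescence from cAMP-driven transcription, 7-point serial dilutions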
T1 construct: host or cells: BHK cells (Hollex-1 line: human calcitonin receptor (a) + CRE-Luc), further transfected with human RAMP3
T1 sequence (O60896 whole entry, looked up): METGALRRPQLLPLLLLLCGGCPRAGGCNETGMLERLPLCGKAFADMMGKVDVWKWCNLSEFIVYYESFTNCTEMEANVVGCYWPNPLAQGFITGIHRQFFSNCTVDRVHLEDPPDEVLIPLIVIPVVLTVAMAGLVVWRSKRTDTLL
T1 sequence (P30988 whole entry, looked up): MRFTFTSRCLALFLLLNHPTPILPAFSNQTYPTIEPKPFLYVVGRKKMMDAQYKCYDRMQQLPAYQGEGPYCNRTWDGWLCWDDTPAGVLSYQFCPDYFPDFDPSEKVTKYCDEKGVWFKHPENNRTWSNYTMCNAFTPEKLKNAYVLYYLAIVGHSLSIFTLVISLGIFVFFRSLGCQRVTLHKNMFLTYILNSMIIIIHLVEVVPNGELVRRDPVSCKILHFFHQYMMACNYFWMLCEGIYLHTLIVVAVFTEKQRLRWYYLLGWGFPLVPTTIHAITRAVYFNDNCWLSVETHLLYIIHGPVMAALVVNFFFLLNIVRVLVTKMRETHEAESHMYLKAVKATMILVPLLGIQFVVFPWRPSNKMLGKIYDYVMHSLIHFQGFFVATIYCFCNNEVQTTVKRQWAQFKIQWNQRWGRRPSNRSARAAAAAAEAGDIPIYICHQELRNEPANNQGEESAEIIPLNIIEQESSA
Source text: Activation of hAmyR3 leads to increased cellular concentrations of cAMP. Consequently, transcription is activated by promotors containing multiple copies of the cAMP response element (CRE). It is thus possible to measure hAmyR3 activity using a CRE-luciferase reporter gene introduced into Baby Hamster Kidney (BHK) cells co-expressing the hAmyR3.
The cell line was further transfected with human receptor modifying protein 3 (RAMP3) using standard methods. This turns the human calcitonin receptor into a human amylin-3(a) receptor.
Cells were aliquoted and stored at -180° C. until use.
The plate was incubated over night at 37° C. in 5% CO2. On the day of the assay, cells were washed three times in assay buffer. Serial dilutions (7-fold dilutions, 7 concentrations pr. compound and one well containing only assay buffer) of comparator compounds and GLP-1 receptor-amylin receptor co-agonists were performed in assay buffer often starting from approximately 10-100 nM in 96-well plates and 30 µL of each concentration added to the 384-well assay plate with cells. […] The assay plate was sealed, incubated at room temperature with gentle shaking for 5 minutes followed by 30 minutes incubation without shaking while protected from light. Luminescence was detected on a luminescence plate reader e.g. a Synergy 2 (BioTek).

Molecule: human amylin (KCNTATCATQRLANFLVHSSNNFGAILSSTNVGSNTY; Islet amyloid polypeptide; UniProt P10997 34-70, looked up) [37-amino acid long polypeptide hormone co-secreted with insulin from the pancreatic beta-cell]
half-life [1]: 15 to 20 min
half-life [2]: 15 to 20 min

Ability to agonise the amylin receptor, in words [3]: do not activate the amylin receptor
B1: H-Aib-EGTFTSDVSSYLEGQAA-K([2-[2-[2-[[2-[2-[2-[[(4S)-4-Carboxy-4-(17-Carboxyheptadecanoylamino)Butanoyl]Amino]Ethoxy]Ethoxy]Acetyl]Amino]Ethoxy]Ethoxy]Acetyl])-EFIAWLVRGRGGQEPGQEP-K([2-[2-[2-[[2-[2-[2- … (peptide)
peptide: H[Aib]EGTFTSDVSSYLEGQAAK([AEEA-AEEA-γGlu-C18 diacid])EFIAWLVRGRGGQEPGQEPK([AEEA-AEEA-γGlu-C18 diacid])CNTATCATQRLAEFLRHSSNNFGPILPPTNVGSNTP-NH2
modifications: ends and bridges not checked

From patent publication US20230331803A1, “CO-AGONISTS OF THE GLP-1 AND AMYLIN RECEPTORS” (priority 2020, published 2023)
